Experimental data from US12163955B2, “Antibodies to methotrexate and uses thereof” (Ark Diagnostics, Inc., priority 2023, dated 2024).
Values joined by “and” are separate entries in the source; they are usually repeats but may differ in a detail not shown here. Equal entries are not always repeated. Values belong to the molecule of their own block, whether it stands above or below them.

Test: Homogeneous enzyme immunoassay calibration curves with antibody clones and DAMP-Y-S-G6PDH conjugate
Format: biochemical
Description: MTX antibodies and enzyme conjugates may be advantageously used in accordance with the present disclosure in a homogeneous assay format to detect a MTX analyte in samples. Antibodies may be evaluated by known methods, such as, conjugate inhibition, conjugate modulation, calibration, cross-reactivity and spike-recovery. For these purposes, cloned antibodies (28H3-K1, 32H1-K2, 64H1-K1) is added into the antibody diluent to prepare the antibody reagent. The antibody reagent includes antibody as prepared above, buffer, salts, stabilizers, preservatives, NAD^+, and glucose-6-phosphate. Enzyme conjugate DAMP-Y-S-G6PDH is added into the conjugate diluent to prepare the enzyme conjugate reagent. The enzyme conjugate reagent includes the conjugate, buffer, stabilizers, salts, and preservatives.
A clinical chemistry analyzer useful to evaluate antibodies and enzyme conjugates in a homogeneous enzyme immunoassay format is the Beckman Coulter AU480 (Beckman Coulter, Brea, CA). The Beckman AU480 is an automated biochemistry spectrophotometer analyzer used by medical laboratories to process biological fluid specimens, such as urine, cerebrospinal fluid, oral fluids, plasma and serum. The analyzer is capable of maintaining a constant temperature, pipetting samples, mixing reagents, measuring light absorbance and timing the reaction accurately.
A homogeneous enzyme immunoassay is conducted using a liquid, ready-to-use, two reagent assay as described above. Typically, 2-15 μL MTX analyte-containing sample is incubated with 75-150 μL antibody reagent followed by the addition of the 50-100 μL enzyme conjugate reagent.
The assay is a homogeneous enzyme immunoassay technique used for the analysis of MTX in biological fluids. The assay is based on competition between MTX in the specimen and -MTX or MTX analog (DAMP derivatives of the current invention) labeled with the enzyme glucose-6-phosphate dehydrogenase (G6PDH) for antibody binding sites. Enzyme activity decreases upon binding to the antibody, so the drug concentration in the sample can be measured in terms of enzyme activity. Active enzyme converts nicotinamide adenine dinucleotide (NAD^+) to NADH, resulting in an absorbance change that is measured spectrophotometrically at 340 nm. […] The change in the absorbance at 340 nm can be measured spectrophotometrically and is proportional to the enzyme conjugate activity which in turn is related to analyte concentration (see FIG. 14).
MTX analyte antibodies and enzyme conjugate (DAMP-Y-S-G6PDH) were used in a homogeneous assay format to generate calibration curves using MTX standards as described in Example 12. Antibody reagents were prepared as described in Example 8 through 11 using DAMP-Y-KLH generated rabbit antibodies and cloned antibodies through B-cell. Enzyme conjugate DAMP-Y-S-G6PDH was used to prepare the conjugate reagent. A 6-point calibration curve was generated on the Beckman AU480 clinical chemistry analyzer as described in Examples 12. […]

[1] = antibody 200.0 μL/g, 0.00 to 0.05 μM
[2] = antibody 200.0 μL/g, 0.00 to 1.20 μM
[3] = antibody 200.0 μL/g, 0.05 to 0.15 μM
[4] = antibody 200.0 μL/g, 0.25 to 0.50 μM
[5] = antibody 200.0 μL/g, 0.50 to 1.20 μM
[6] = antibody 200.0 μL/g, Cals 0.00 μM
[7] = antibody 200.0 μL/g, Cals 0.05 μM
[8] = antibody 200.0 μL/g, Cals 0.15 μM
[9] = antibody 200.0 μL/g, Cals 0.50 μM
[10] = antibody 200.0 μL/g, Cals 1.20 μM
[11] = antibody 82.5 μL/g, Cals 0.00 μM
[12] = antibody 82.5 μL/g, Cals 0.05 μM
[13] = antibody 82.5 μL/g, Cals 0.15 μM
[14] = antibody 82.5 μL/g, Cals 0.50 μM
[15] = antibody 82.5 μL/g, Cals 1.20 μM
[16] = antibody 90.0 μL/g, Cals 0.00 μM
[17] = antibody 90.0 μL/g, Cals 0.05 μM
[18] = antibody 90.0 μL/g, Cals 0.15 μM
[19] = antibody 90.0 μL/g, Cals 0.50 μM
[20] = antibody 90.0 μL/g, Cals 1.20 μM
[21] = antibody 100.0 μL/g, Cals 0.00 μM
[22] = antibody 100.0 μL/g, Cals 0.05 μM
[23] = antibody 100.0 μL/g, Cals 0.15 μM
[24] = antibody 100.0 μL/g, Cals 0.50 μM
[25] = antibody 100.0 μL/g, Cals 1.20 μM

- Separation [1]: 103.5 ΔmA/min.
- Separation [2]: 209.7 ΔmA/min.
- Separation [3]: 105.7 ΔmA/min.
- Separation [4]: −0.9 ΔmA/min.
- Separation [5]: 0.3 ΔmA/min.
- Absorbance [6]: 0.4007 and 0.3982
- Average Rate [6]: 399.45 mA/min
- Absorbance [7]: 0.5023 and 0.5035
- Average Rate [7]: 502.90 mA/min
- Absorbance [8]: 0.6091 and 0.6080
- Average Rate [8]: 608.55 mA/min
- Absorbance [9]: 0.6084 and 0.6093
- Average Rate [9]: 608.85 mA/min
- Absorbance [10]: 0.6108 and 0.6075
- Average Rate [10]: 609.15 mA/min
B1: 32H1/32K2: rabbit recombinant monoclonal antibody to MTX, VH SEQ ID NO: 9, VL SEQ ID NO: 13 (antibody)
VH: METGLRWLLLVAVLKGVQCQSLEESGGDLVKPGASLTLTCTASGLSFSSSDHWICWVRQAPGKGLESVGCIYIGSGTFVSSGTTYFASWAKGRSIISKTSSTTVTLQMTSLTAADTATYFCARGFYYTDGSGGPSYLNLWGQGTLVTVSSGQPKAPSVFPLAPCCGDTPSSTVTLGCLVKGYLPEPVTVTWNSGTLTNGVRTFPSVRQSSGLYSLSSVVSVTSSSQPVTCNVAHPATNTKVDKTVAPSTCSKPTCPPPELLGGPSVFIFPPKPKDTLMISRTPEVTCVVVDVSQDDPEVQFTWYINNEQVRTARPPLREQQFNSTIRVVSTLPITHQDWLRGKEFKCKVHNKALPAPIEKTISKARGQPLEPKVYTMGPPREELSSRSVSLTCMINGFYPSDISVEWEKNGKAEDNYKTTPAVLDSDGSYFLYNKLSVPTSEWQRGDVFTCSVMHEALHNHYTQKSISRSPGK
VL: MDTRAPTQLLGLLLLWLPGARCADIVMTQTPASVEAAVGGTVTIKCQASQTIYSYLSWFQQKPGQPPKLLIYSASTLASGVSSRFKGSRSGTESTLTISDLECADAATYYCQSYMYSSSSSFGSTFGGGTEVVVKGDPVAPTVLIFPPAADQVATGTVTIVCVANKYFPDVTVTWEVDGTTQTTGIENSKTPQNSADCTYNLSSTLTLTSTQYNSHKEYTCKVTQGTTSVVQSFNRGDC

- Separation (antibody 82.5 μL/g, 0.00 to 0.05 μM): 39.3 ΔmA/min.
- Separation (antibody 82.5 μL/g, 0.00 to 1.20 μM): 256.1 ΔmA/min.
- Separation (antibody 82.5 μL/g, 0.05 to 0.15 μM): 76.7 ΔmA/min.
- Separation (antibody 82.5 μL/g, 0.25 to 0.50 μM): 55.8 ΔmA/min.
- Separation (antibody 82.5 μL/g, 0.50 to 1.20 μM): 22.6 ΔmA/min.
- Absorbance [11]: 0.3378 and 0.3384
- Average Rate [11]: 338.10 mA/min
- Absorbance [12]: 0.3775 and 0.3772
- Average Rate [12]: 377.35 mA/min
- Absorbance [13]: 0.4548 and 0.4533
- Average Rate [13]: 454.05 mA/min
- Absorbance [14]: 0.5708 and 0.5725
- Average Rate [14]: 571.65 mA/min
- Absorbance [15]: 0.5943 and 0.5941
- Average Rate [15]: 594.20 mA/min
- Separation (antibody 90.0 μL/g, 0.00 to 0.05 μM): 35.3 ΔmA/min.
- Separation (antibody 90.0 μL/g, 0.00 to 1.20 μM): 256.5 ΔmA/min.
- Separation (antibody 90.0 μL/g, 0.05 to 0.15 μM): 69.9 ΔmA/min.
- Separation (antibody 90.0 μL/g, 0.25 to 0.50 μM): 60.8 ΔmA/min.
- Separation (antibody 90.0 μL/g, 0.50 to 1.20 μM): 30.8 ΔmA/min.
- Absorbance [16]: 0.3355 and 0.3373
- Average Rate [16]: 336.40 mA/min
- Absorbance [17]: 0.3723 and 0.3711
- Average Rate [17]: 371.70 mA/min
- Absorbance [18]: 0.4421 and 0.4412
- Average Rate [18]: 441.65 mA/min
- Absorbance [19]: 0.5624 and 0.5618
- Average Rate [19]: 562.10 mA/min
- Absorbance [20]: 0.5925 and 0.5933
- Average Rate [20]: 592.90 mA/min
- Separation (antibody 100.0 μL/g, 0.00 to 0.05 μM): 28.3 ΔmA/min.
- Separation (antibody 100.0 μL/g, 0.00 to 1.20 μM): 250.1 ΔmA/min.
- Separation (antibody 100.0 μL/g, 0.05 to 0.15 μM): 63.1 ΔmA/min.
- Separation (antibody 100.0 μL/g, 0.25 to 0.50 μM): 72.9 ΔmA/min.
- Separation (antibody 100.0 μL/g, 0.50 to 1.20 μM): 38.7 ΔmA/min.
- Absorbance [21]: 0.3401 and 0.3411
- Average Rate [21]: 340.60 mA/min
- Absorbance [22]: 0.3679 and 0.3698
- Average Rate [22]: 368.85 mA/min
- Absorbance [23]: 0.4318 and 0.4320
- Average Rate [23]: 431.90 mA/min
- Absorbance [24]: 0.5529 and 0.5511
- Average Rate [24]: 552.00 mA/min
- Absorbance [25]: 0.5913 and 0.5901
- Average Rate [25]: 590.70 mA/min
B2: 64H1/64K1: rabbit recombinant monoclonal antibody to MTX, VH SEQ ID NO: 17, VL SEQ ID NO: 21 (antibody)
VH: METGLRWLLLVAVLKGVQCQSLEESGGRLVTPGTPMTLTCTASGFSLVKYYMTWVRQAPGKGLEYIGVIWSGGMTYYASWAKGRFTISRTSTTVDLKIISPTTEDTATYFCARERDYFDGYIGNDIWGQGTLVTVSSGQPKAPSVFPLAPCCGDTPSSTVTLGCLVKGYLPEPVTVTWNSGTLTNGVRTFPSVRQSSGLYSLSSVVSVTSSSQPVTCNVAHPATNTKVDKTVAPSTCSKPTCPPPELLGGPSVFIFPPKPKDTLMISRTPEVTCVVVDVSQDDPEVQFTWYINNEQVRTARPPLREQQFNSTIRVVSTLPITHQDWLRGKEFKCKVHNKALPAPIEKTISKARGQPLEPKVYTMGPPREELSSRSVSLTCMINGFYPSDISVEWEKNGKAEDNYKTTPAVLDSDGSYFLYNKLSVPTSEWQRGDVFTCSVMHEALHNHYTQKSISRSPGK
VL: MDTRAPTQLLGLLLLWLPGATFAQVLTQTPSSVSAAVGGTVTINCQSSQSVWSRHLSWFQQKPGQPPKLLIYKASTLASGVPSRFSGSGSGTQFTLTISDVQCDDAATYYCLGGYTCIRDDCRAFGGGTEVVVKGDPVAPTVLIFPPAADQVATGTVTIVCVANKYFPDVTVTWEVDGTTQTTGIENSKTPQNSADCTYNLSSTLTLTSTQYNSHKEYTCKVTQGTTSVVQSFNRGDC

- Separation [1]: 43.2 ΔmA/min.
- Separation [2]: 157.5 ΔmA/min.
- Separation [3]: 76.3 ΔmA/min.
- Separation [4]: 0.2 ΔmA/min.
- Separation [5]: 1.8 ΔmA/min.
- Absorbance [6]: 0.4534 and 0.4555
- Average Rate [6]: 454.45 mA/min
- Absorbance [7]: 0.4989 and 0.4964
- Average Rate [7]: 497.65 mA/min
- Absorbance [8]: 0.5737 and 0.5742
- Average Rate [8]: 573.95 mA/min
- Absorbance [9]: 0.6112 and 0.6092
- Average Rate [9]: 610.20 mA/min
- Absorbance [10]: 0.6095 and 0.6144
- Average Rate [10]: 611.95 mA/min
B3: 28H3/28K1: rabbit recombinant monoclonal antibody to MTX, VH SEQ ID NO: 1, VL SEQ ID NO: 5 (antibody)
VH: METGPRWLLLVAVLKGVQCQSLEESGGDLVKPGASLALTCKASGLDFSRSDHWICWVRQAPGKGLESIGCIYIGSGTFVRSGTTYYASWAKGRFTISKTSSTTVTLQMTSLTGADTATYFCARGFYATDGYGGPSYLNLWGQGTLVTVSSGQPKAPSVFPLAPCCGDTPSSTVTLGCLVKGYLPEPVTVTWNSGTLTNGVRTFPSVRQSSGLYSLSSVVSVTSSSQPVTCNVAHPATNTKVDKTVAPSTCSKPTCPPPELLGGPSVFIFPPKPKDTLMISRTPEVTCVVVDVSQDDPEVQFTWYINNEQVRTARPPLREQQFNSTIRVVSTLPITHQDWLRGKEFKCKVHNKALPAPIEKTISKARGQPLEPKVYTMGPPREELSSRSVSLTCMINGFYPSDISVEWEKNGKAEDNYKTTPAVLDSDGSYFLYNKLSVPTSEWQRGDVFTCSVMHEALHNHYTQKSISRSPGK
VL: MDTRAPTQLLGLLLLWLPGARCADIVMTQTPASVEAAVGGTVTIKCQASESISSYCSWFQQKPGQPPKLLIYRASTLESGVPSRFKGSGSGTQFTLTISDLECADAATYYCQSYAYSSPDSYGSTFGGGTEVVVKGDPVAPTVLIFPPAADQVATGTVTIVCVANKYFPDVTVTWEVDGTTQTTGIENSKTPQNSADCTYNLSSTLTLTSTQYNSHKEYTCKVTQGTTSVVQSFNRGDC
